Experimental data: patent US20220213462A1

Molecular target: peptide VWF73 (FRET substrate encompassing the ADAMTS13 recognition site of von Willebrand factor) (UniProt P04275)
Experiment: cell-based or functional assay
Settings: scale: µL of normal human plasma equivalent per 200,000 cells

peptide VWF73 (FRET substrate encompassing the ADAMTS13 recognition site of von Willebrand factor), sequence (P04275 1596-1668 limits assumed): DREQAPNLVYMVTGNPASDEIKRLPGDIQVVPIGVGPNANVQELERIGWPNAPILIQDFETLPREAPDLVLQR

- VWF73 FRET assay, ADAMTS13 enzymatic activity (K562 cells): 10
- VWF73 FRET assay, ADAMTS13 enzymatic activity (iPSC-derived erythroid cells): 10
Substance: GPI-ADAMTS13 (AD5): first 745 amino acids of human ADAMTS13 fused to the DAF GPI anchor sequence (from UniProt Q76LX8 75-745) (enzyme)
